Here are results for 1 molecule from article PMC10881024, “No evidence for a direct extracellular interaction between human Fc receptor–like 3 (MAIA) and the sperm ligand IZUMO1” (Science Advances, 2024).

This test deals with T1, human IZUMO1 entire ectodomain, biotinylated, rat Cd4 domains 3 and 4 tagged (bait construct) (human, UniProt Q8IYV9 22-285, enzymatically biotinylated (BirA) on the biotinylation target sequence).
T1 construct: IZUMO1, human, entire ectodomain, truncated at P285 of Q8IYV9; Monomer as expressed; also called IZUMO1 bait; biotinylated monomeric IZUMO1; source: HEK293-6E, transient transfection, cotransfected with secreted BirA; conditioned medium dialysed in PBS, or purified from spent medium on Ni-NTA (SAVEXIS); not shown: domains 3 and 4 of rat CD4, C-terminal, kept
T1 sequence (Q8IYV9 22-285): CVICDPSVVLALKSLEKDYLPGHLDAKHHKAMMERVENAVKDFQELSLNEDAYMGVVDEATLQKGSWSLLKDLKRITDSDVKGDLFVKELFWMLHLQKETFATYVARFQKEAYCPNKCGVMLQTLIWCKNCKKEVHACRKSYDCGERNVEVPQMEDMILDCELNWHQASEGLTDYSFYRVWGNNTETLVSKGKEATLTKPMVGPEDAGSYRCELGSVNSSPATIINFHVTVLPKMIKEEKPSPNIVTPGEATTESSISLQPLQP
As to the kind of experiment: SAVEXIS; purified monomeric biotinylated baits at 13.4 nM captured on streptavidin-coated plates 16 hours at 4°C; preys made multimeric by clustering biotinylated monomers around streptavidin-HRP, 4.4 nM, 1 hour at room temperature; HBS-T washes with desthiobiotin; tetramethylbenzidine, absorbance at 650 nm. The conditions noted are these: both partners purified.

B1: human JUNO entire ectodomain, biotinylated, rat Cd4 domains 3 and 4 tagged (bait construct) (domain or fragment, UniProt A6ND01 20-231, looked up)
chain: GDELLNICMNAKHHKRVPSPEDKLYEECIPWKDNACCTLTTSWEAHLDVSPLYNFSLFHCGLLMPGCRKHFIQAICFYECSPNLGPWIQPVGSLGWEVAPSGQGERVVNVPLCQEDCEEWWEDCRMSYTCKSNWRGGWDWSQGKNRCPKGAQCLPFSHYFPTPADLCEKTWSNSFKASPERRNSGRCLQKWFEPAQGNPNVAVARLFASSAP
modifications: enzymatically biotinylated (BirA) on the biotinylation target sequence
notes: JUNO, human, entire ectodomain, truncated at P231 of A6ND01; also called JUNO bait; human JUNO (bait); source: HEK293-6E, transient transfection, cotransfected with secreted BirA; conditioned medium dialysed in PBS (AVEXIS), or purified from spent medium on Ni-NTA (SAVEXIS); not shown: domains 3 and 4 of rat CD4, C-terminal, kept
As to B1, the binding result was “binds”.
